Marks after values point to notes of the source that are not given here.
T1: PYR1*^-MANDI (Arabidopsis thaliana, UniProt O49686, A160V/F108A/F159V/K59R/M158I/S122G/T162D/V81I/Y58H)
T1 construct: expressed in transfected cells; host or cells: S. cerevisiae strain MAV99 (selection)
T1 sequence (O49686 1-191 Y58H/K59R/V81I/F108A/S122G/M158I/F159V/A160V/T162D): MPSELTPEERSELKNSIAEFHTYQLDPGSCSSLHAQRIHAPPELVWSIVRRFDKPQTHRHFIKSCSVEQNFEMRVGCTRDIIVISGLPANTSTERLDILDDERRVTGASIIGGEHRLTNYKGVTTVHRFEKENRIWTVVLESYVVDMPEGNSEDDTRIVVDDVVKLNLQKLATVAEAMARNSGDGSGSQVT

B1: S322D (protein, listed as Arabidopsis thaliana)
chain: MEEMTPAVAMTLSLAANTMCESSPVEITQLKNVTDAADLLSDSENQSFCNGGTECTMEDVSELEEVGEQDLLKTLSDTRSGSSNVFDEDDVLSVVEDNSAVISEGLLVVDAGSELSLSNTAMEIDNGRVLATAIIVGESSIEQVPTAEVLIAGVNQDTNTSEVVIRLPDENSNHLVKGRSVYELDCIPLWGTVSIQGNRSEMEDAFAVSPHFLKLPIKMLMGDHEGMSPSLTHLTGHFFGVYDGHGGHKVADYCRDRLHFALAEEIERIKDELCKRNTGEGRQVQWDKVFTSCFLTVDGEIEGKIGRAVVGSSDKVLEAVADETVGSTAVVALVCSSHIVVSNCGDSRAVLFRGKEAMPLSVDHKPDREDEYARIENAGGKVIQWQGARVFGVLAMSRSIGDRYLKPYVIPEPEVTFMPRSREDECLILASDGLWDVMNNQEVCEIARRRILMWHKKNGAPPLAERGKGIDPACQAAADYLSMLALQKGSKDNISIIVIDLKAQRKFKTRT
B2: S322E (protein, listed as Arabidopsis thaliana)
chain: MEEMTPAVAMTLSLAANTMCESSPVEITQLKNVTDAADLLSDSENQSFCNGGTECTMEDVSELEEVGEQDLLKTLSDTRSGSSNVFDEDDVLSVVEDNSAVISEGLLVVDAGSELSLSNTAMEIDNGRVLATAIIVGESSIEQVPTAEVLIAGVNQDTNTSEVVIRLPDENSNHLVKGRSVYELDCIPLWGTVSIQGNRSEMEDAFAVSPHFLKLPIKMLMGDHEGMSPSLTHLTGHFFGVYDGHGGHKVADYCRDRLHFALAEEIERIKDELCKRNTGEGRQVQWDKVFTSCFLTVDGEIEGKIGRAVVGSSDKVLEAVAEETVGSTAVVALVCSSHIVVSNCGDSRAVLFRGKEAMPLSVDHKPDREDEYARIENAGGKVIQWQGARVFGVLAMSRSIGDRYLKPYVIPEPEVTFMPRSREDECLILASDGLWDVMNNQEVCEIARRRILMWHKKNGAPPLAERGKGIDPACQAAADYLSMLALQKGSKDNISIIVIDLKAQRKFKTRT
B3: R199A (protein, listed as Arabidopsis thaliana)
chain: MEEMTPAVAMTLSLAANTMCESSPVEITQLKNVTDAADLLSDSENQSFCNGGTECTMEDVSELEEVGEQDLLKTLSDTRSGSSNVFDEDDVLSVVEDNSAVISEGLLVVDAGSELSLSNTAMEIDNGRVLATAIIVGESSIEQVPTAEVLIAGVNQDTNTSEVVIRLPDENSNHLVKGRSVYELDCIPLWGTVSIQGNASEMEDAFAVSPHFLKLPIKMLMGDHEGMSPSLTHLTGHFFGVYDGHGGHKVADYCRDRLHFALAEEIERIKDELCKRNTGEGRQVQWDKVFTSCFLTVDGEIEGKIGRAVVGSSDKVLEAVASETVGSTAVVALVCSSHIVVSNCGDSRAVLFRGKEAMPLSVDHKPDREDEYARIENAGGKVIQWQGARVFGVLAMSRSIGDRYLKPYVIPEPEVTFMPRSREDECLILASDGLWDVMNNQEVCEIARRRILMWHKKNGAPPLAERGKGIDPACQAAADYLSMLALQKGSKDNISIIVIDLKAQRKFKTRT
B4: PYR1^Y58H;K59R;V81I;F108A;S122G;M158V;F159V;A160V;T162D: PYR1 mutant with 9 mutations (protein, listed as Arabidopsis thaliana)
chain: MPSELTPEERSELKNSIAEFHTYQLDPGSCSSLHAQRIHAPPELVWSIVRRFDKPQTHRHFIKSCSVEQNFEMRVGCTRDIIVISGLPANTSTERLDILDDERRVTGASIIGGEHRLTNYKGVTTVHRFEKENRIWTVVLESYVVDMPEGNSEDDTRVVVDDVVKLNLQKLATVAEAMARNSGDGSGSQVT
B5: PYR1^Y58H;K59R;V81I;F108A;S122G;M158I;F159V;A160C;T162D: PYR1 mutant with 9 mutations (protein, listed as Arabidopsis thaliana)
chain: MPSELTPEERSELKNSIAEFHTYQLDPGSCSSLHAQRIHAPPELVWSIVRRFDKPQTHRHFIKSCSVEQNFEMRVGCTRDIIVISGLPANTSTERLDILDDERRVTGASIIGGEHRLTNYKGVTTVHRFEKENRIWTVVLESYVVDMPEGNSEDDTRIVCDDVVKLNLQKLATVAEAMARNSGDGSGSQVT

Legend:
PYR1*^-MANDI = target: T1, PYR1*^-MANDI; assay: Yeast two hybrid, mandipropamid-induced interaction of HAB1 variants with pBD-PYR1*^-MANDI; format: cell-based; details: selection on 500 nM mandipropamid
From the text: To investigate the effects of overexpressing HAB1^!-2 in Arabidopsis, we used Agrobacterium mediated transformation to generate 35S::GFP-HAB1^!-2 transgenic plants. HAB1^!-2 was cloned from pACT-HAB1^!-2 into pEGAD, a binary vector suitable for plant transformation, generating a 35S-driven GFP-HAB1^!-2 fusion protein. The clone was transformed into Agrobacterium and the floral dip method used to transform Arabidopsis. After selection of T0 seed on soil containing glufosinate, several T1 seedlings were identified. […] As an alternate strategy, we eliminated HAB1's catalytic activity by introducing a mutation in a conserved metal-ion binding residue (D204), which is homologous to D131A mutation in ABI1, previously shown to eliminate phosphatase activity without disrupting wild type receptor-ABI1 interactions (Liang et al., 2011). We used QuickChange mutagenesis to introduce the D204A mutation into pACT-HAB1^!-2, generating pACT-HAB1^!-3. When tested for mandipropamid induced interactions with pBD-PYR1*^-MANDI, HAB1^!-3 is ˜10-fold less sensitive to mandipropamid relative to HAB1^!-2 (FIG. 5).
D204 is located within HAB1's catalytic active site and binds to one of 3 catalytic Mg^++ ions that participate in catalysis. […] It is likely that disruptions to active site structure introduced by D204A destabilize the PYR1*^-MANDI/HAB1^!-3 interaction relative to HAB1^!-2. We reasoned that suppressor mutations in other HAB1 interface or active site residues could restore sensitivity by strengthening interactions with PYR1*^-MANDI. To identify such suppressors, we mutagenized the pACT-HAB1^!-3 template using NNK mutagenesis in 28 residues located with at the PYR1 binding interface. The residues targeted were: R199, S200, E201, E203, D243, G244, H245, G246, G247, S322, E323, T324, D346, K365, K381, 1383, Q384, W385, Q386, R389, F391, G392, Y404, S431, G433, D436, D492 and N394. The pACT-HAB1^!-3 template was mutagenized in 28 separate NNK mutagenesis reactions using the QuickChange protocol. Mini-libraries, each containing ˜1000 clones, were made for each NNK reaction and plasmid DNA for the 28 mutations prepared, pooled, and then transformed into S. cerevisiae strain MAV99 co-transformed with pBD-PYR1*^-MANDI, and then plated onto selective SD(-Leu,-Trp,-Ura) agar media supplemented with 500 nM mandipropamid. […] S322D and R199A were combined using the Lightning Multi-site Mutagenesis™ (Agilent, USA) method, and the resultant pentuple mutant tested in combination with pBD-PYR1*^-MANDI for sensitivity to mandipropamid using β-galactosidase assays.

HAB1^!-2 = assay: Yeast two hybrid, mandipropamid-promoted interaction of PYR1 variants with HAB1^!-2; format: cell-based; details: for mandipropamid concentration to which the interaction responds: FIG. 3, FIG. 4; for relative mandipropamid sensitivity among selected mutants: β-galactosidase assays on different mandipropamid concentrations
From the text: To engineer orthogonal mandipropamid responsiveness, we introduced the PYR1^! mutation into the PYR1^MANDI receptor to create a septuple mutant called PYR1^!-MANDI (PYR1^Y58H;K59R;V81I;F108A;S122G;F159L;T162D). This mutant interacts with HAB1^! and HAB^!-2 in response to low μM mandipropamid in yeast two-hybrid assays, but is ˜100-fold less sensitive than the PYR1^MANDI/HAB1 interaction, which responds to concentrations in the low nM range (FIG. 3).
To improve sensitivity, we mutagenized ligand contacting and interface residues in PYR1^!-MANDI using NNK primers, pooled the mutant libraries, and used the mutagenized receptors in selection experiments using to identify enhancer mutations. The NNK mutagenesis screen targeted the following residues: P55, H60, F61, I62, K63, V83, S85, G86, L87, P88, A89, S92, E94, I110, H115, R116, L117, Y120, E141, P148, G150, N151, D154, D155, T156, M158, A160, V163, V164, L166, N167, and K170. […] Since M158 and A160 flank the […] mutation present in PYR1^MANDI, we inferred that the closely located orthogonalizing T162D mutation in PYR1^!-MANDI may have reduced mandipropamid sensitivity by altering the local structure of the C-terminal α3-helix, which participates in ligand-induced conformational changes needed for PP2C binding (Nishimura et al., 2009). We therefore simultaneously mutagenized positions M158, F159 and A160 using a primer with degenerate NNK codons at all three positions. F159 was included in this mutagenesis because we have previously observed that multiple substitutions at F159 (A,C,I,L,M,T, or V) are permissive for mandipropamid responsiveness (S. Y. Park et al., n.d.), and sought to test whether residues other than leucine at position 159 might function better in the context of simultaneous changes to both A160 and M158. The mutagenic primer was used in QuickChange mutagenesis reactions using pBD-PYR1^!-MANDI template, and a library of ˜12,000 clones was generated. Plasmid DNA for the library was prepared from pooled E. coli transformants, and subsequently transformed into S. cerevisiae strain MAV99 harboring pACT-HAB1^!-2. ˜20,000 yeast transformants were generated, pooled, and plated onto SD(-Leu,-Trp) agar media supplemented with 0.1% fluorotic acid (to select against mutants that interact in a ligand-independent fashion). The surviving cells were collected and plated onto SD(Leu,-Trp,-Ura) plates supplemented with 50 nM mandipropamid. The colonies displaying the best uracil-independent growth were isolated and retested on different mandipropamid concentrations and then stained in β-galactosidase assays to rank their relative strength.

| Molecule | effect of mutation on mandipropamid responsiveness of HAB1^!-3 (PYR1*^-MANDI) | mandipropamid concentration to which the interaction responds (HAB1^!-2) | relative mandipropamid sensitivity among selected mutants (HAB1^!-2) |
| --- | --- | --- | --- |
| B1 | enhance responsiveness of HAB1^!-3 | – | – |
| B2 | enhance responsiveness of HAB1^!-3 | – | – |
| B3 | enhance responsiveness of HAB1^!-3 | – | – |
| B4 | – | nM responses | slightly less sensitive than PYR1*^-MANDI |
| B5 | – | nM responses | slightly less sensitive than PYR1*^-MANDI |

From patent US10919943B2, “Mutant proteins enabling agrochemical control of plant gene expression” (The Regents of the University of California, priority 2016, dated 2021)
